This series has as its target Sp1 (human, UniProt P08047 1-785). The series is described as follows: EMSA.

Sp1, sequence (P08047 whole entry): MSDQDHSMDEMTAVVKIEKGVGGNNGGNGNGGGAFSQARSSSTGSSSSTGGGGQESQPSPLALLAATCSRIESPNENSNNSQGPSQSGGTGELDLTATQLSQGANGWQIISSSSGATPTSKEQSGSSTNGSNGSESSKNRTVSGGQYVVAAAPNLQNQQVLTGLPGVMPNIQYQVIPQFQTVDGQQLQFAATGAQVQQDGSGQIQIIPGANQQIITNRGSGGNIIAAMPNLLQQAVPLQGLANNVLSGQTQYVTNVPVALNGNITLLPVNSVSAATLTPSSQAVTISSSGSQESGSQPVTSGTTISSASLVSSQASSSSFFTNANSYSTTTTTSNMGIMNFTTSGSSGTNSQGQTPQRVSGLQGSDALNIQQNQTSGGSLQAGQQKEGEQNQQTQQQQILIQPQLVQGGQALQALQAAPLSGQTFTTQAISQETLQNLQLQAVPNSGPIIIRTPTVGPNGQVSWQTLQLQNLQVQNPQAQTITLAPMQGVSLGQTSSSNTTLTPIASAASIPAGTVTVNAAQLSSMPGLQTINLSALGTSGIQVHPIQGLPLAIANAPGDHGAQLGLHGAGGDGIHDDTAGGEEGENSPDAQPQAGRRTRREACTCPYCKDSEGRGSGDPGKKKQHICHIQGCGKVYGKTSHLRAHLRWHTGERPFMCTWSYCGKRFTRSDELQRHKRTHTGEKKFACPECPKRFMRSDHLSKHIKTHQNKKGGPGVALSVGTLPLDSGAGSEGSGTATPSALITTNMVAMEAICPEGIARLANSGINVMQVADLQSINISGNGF

B1: wtANF-Sp-s2 (dsDNA)
DNA 1: TGAGGGTCTGGGGGAGGGAGGGTTACTGGAG
DNA 2: CTCCAGTAACCCTCCCTCCCCCAGACCCTCA
For the molecule B1, the binding result was “binds”.

B2: wtANF-Sp-s4 (dsDNA)
DNA 1: GACATCTAGGGTGGGGGTGGGCTGTCTGG
DNA 2: CCAGACAGCCCACCCCCACCCTAGATGTC
For the molecule B2, the binding result was “binds”.

B3: wtANF-Sp-s1 (dsDNA)
DNA 1: GTGACAGAATGGGGAGGGTTCCAGCTCT
DNA 2: AGAGCTGGAACCCTCCCCATTCTGTCAC
In the case of B3, the binding result is “binds”.

B4: wtANF-Sp-s3 (dsDNA)
DNA 1: TATTGCCTCTCCTCCCGCCCTTATTTGGAG
DNA 2: CTCCAAATAAGGGCGGGAGGAGAGGCAATA
B4: the binding result is recorded as “binds”.

Source of the values: paper PMC3918043.
